According to PMC9907729 (Immunity, 2022):

Key:
SEC-MALS = target: the molecule itself; experiment: SEC-MALS
SEC = target: the molecule itself; experiment: SEC
[1] = target: T1, MBP-tagged FoxP3^RBR-forkhead (mouse, UniProt Q99JB6 284-423); experiment: pull-down
T1 sequence (looked up): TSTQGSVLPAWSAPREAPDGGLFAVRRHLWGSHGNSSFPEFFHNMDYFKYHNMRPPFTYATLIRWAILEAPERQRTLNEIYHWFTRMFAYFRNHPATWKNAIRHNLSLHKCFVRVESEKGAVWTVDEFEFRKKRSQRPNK

B1: NusA-tagged FoxP3^RBR-forkhead R337Q (domain or fragment, mouse, UniProt Q99JB6 284-423, looked up)
chain: TSTQGSVLPAWSAPREAPDGGLFAVRRHLWGSHGNSSFPEFFHNMDYFKYHNMQPPFTYATLIRWAILEAPERQRTLNEIYHWFTRMFAYFRNHPATWKNAIRHNLSLHKCFVRVESEKGAVWTVDEFEFRKKRSQRPNK
SEC-MALS
  stoichiometry N: 2

B2: Recombinant Y373V FoxP3^RBR-forkhead (domain or fragment, mouse, UniProt Q99JB6 284-423, looked up)
chain: TSTQGSVLPAWSAPREAPDGGLFAVRRHLWGSHGNSSFPEFFHNMDYFKYHNMRPPFTYATLIRWAILEAPERQRTLNEIYHWFTRMFAVFRNHPATWKNAIRHNLSLHKCFVRVESEKGAVWTVDEFEFRKKRSQRPNK
SEC
  stoichiometry N: 4

B3: NusA-tagged FoxP3^ΔN (domain or fragment, mouse, UniProt Q99JB6 188-423, looked up)
chain: GSYPLLANGVCKWPGCEKVFEEPEEFLKHCQADHLLDEKGKAQCLLQREVVQSLEQQLELEKEKLGAMQAHLAGKMALAKAPSVASMDKSSCCIVATSTQGSVLPAWSAPREAPDGGLFAVRRHLWGSHGNSSFPEFFHNMDYFKYHNMRPPFTYATLIRWAILEAPERQRTLNEIYHWFTRMFAYFRNHPATWKNAIRHNLSLHKCFVRVESEKGAVWTVDEFEFRKKRSQRPNK
SEC-MALS
  stoichiometry N: 2

B4: GST-tagged Runx1 (residue 371–451) (domain or fragment, mouse, UniProt Q03347 371-451, looked up)
chain: GSPSYHLYYGASAGSYQFSMVGGERSPPRILPPCTNASTGAALLNPSLPSQSDVVETEGSHSNSPTNMPPARLEEAVWRPY
[1]
  binding result: binds
